{"source": "patent US8252740B2", "about": "“Thermally-targeted delivery of medicaments including doxorubicin” (The University of Mississippi Medical Center, priority 2006, dated 2012)", "key": {"MES-SA cells": {"system": "MES-SA cells", "assay": "Confocal fluorescence microscopy of intracellular localization", "type": "cell-based, human", "settings": "10 μM", "procedure": "1.7. Laser Scanning Confocal Fluorescence Microscopy. MES-SA cells were plated on 22 mm^2 cover slips at approximately 50% confluence and treated as described above with Tat-ELP-GFLG-Dox (SEQ ID NO: 3). Cells were rinsed with PBS at the indicated times, fixed with paraformaldehyde (PFA, 2% v/v) and visualized using a TCS SP2 laser scanning confocal microscope with a 100× oil immersion objective (Leica, Wetzlar, Germany). PMT voltages were lowered for imaging of cells treated at 42° C. during image acquisition to maximize image resolution and intensity.\n3.4. Cellular Distribution. To confirm that Tat-ELP-GFLG-Dox (SEQ ID NO: 3) was internalized and not merely attached to the cell exterior, the cellular distribution of the ELP-delivered drug was examined by confocal fluorescence microscopy. MES-SA cells were treated for 1 h at 37° C. and 42° C. with 10 μM Tat-ELP1-GFLG-Dox (SEQ ID NO: 3). The cells were rinsed and analyzed immediately after treatment and 24 h later using the intrinsic Dox fluorescence. […] Untreated cells had no signal under the imaging settings used, ruling out any contribution to the images from autofluorescence (FIG. 7B, right panel)."}, "[1]": {"assay": "Turbidity assay of the transition temperature (Tt)", "type": "physicochemical", "procedure": "In order to apply ELP-based polypeptides for drug delivery, a suitable temperature transition must be attained. The drug-labeled ELP should undergo its phase transition between 39 and 42° C., a temperature range sufficiently above normal body temperature to prevent unwanted systemic aggregation, but not hot enough to cause extensive toxicity. Elastin-like polypeptide is ideally suited as a thermally targeted drug carrier because the transition temperature can be easily manipulated by varying the molecular weight or the amino acid composition of the guest residue X in the VPGXG (SEQ ID NO: 2) sequence using simple molecular biology techniques. The transition temperature of Tat-ELP-GFLG-DOX (SEQ ID NO: 3) was assessed by monitoring the turbidity of a solution of the polypeptide while heating in physiological buffer. […] The polypeptide is soluble and the solution is clear at physiological temperature (37° C.).\n1.4. Characterization of the Transition Temperature. The temperature induced aggregation of the proteins was characterized by monitoring absorbance at 350 nm while increasing the temperature. For initial analysis of Dox-labeled ELPs, solutions containing 10 μM protein in PBS were heated or cooled at a constant rate of 1° C./min in a temperature-controlled multicell holder in a UV-visible spectrophotometer (Cary 100, Varian instruments). The analysis was repeated with Tat-ELP1-GFLG-Dox (SEQ ID NO: 3) at concentrations ranging from 1 μM to 30 μM in cell culture media in order to determine the concentration dependence of the phase transition under experimental conditions. Absorbance data was converted to percentage of the maximal absorbance for each curve, and the Tt was defined as the temperature at which the OD350 reached 50% of the maximum turbidity. The concentration dependence of the Tt was fit using a logarithmic equation.\n3.2. Thermal Properties of the Dox Delivery Vector. […] The Tt of Tat-ELP-GFLG-Dox (SEQ ID NO: 3) was assessed by monitoring the turbidity of a 10 μM solution of the polypeptide while heating in PBS. […]"}}, "data": [{"substance": "Tat-ELP1-GFLG-Dox", "values": [{"measurement": "Intracellular localization of Dox", "setting": "MES-SA cells; 24 h after 1 h exposure", "value": "remained in the cell cytoplasm"}, {"measurement": "Intracellular localization of Dox", "setting": "MES-SA cells; after 1 h exposure", "value": "plasma and nuclear membranes as well as in a punctate pattern in the cytoplasm"}, {"measurement": "Transition temperature (Tt)", "setting": "[1]; 10 μM in PBS, heated 1° C./min, midpoint of turbidity", "value": 40, "unit": "°C"}, {"measurement": "State of the solution at physiological temperature", "setting": "[1]; 37° C.", "value": "soluble"}, {"measurement": "State of the solution at hyperthermia temperature", "setting": "[1]; 42° C.", "value": "aggregated"}]}]}
